Measurements from publication doi:10.1101/2025.02.19.639038 (bioRxiv, 2025).
Several values for one entry are separate records, joined by “and”; a condition that tells them apart may be missing. Equal values may be shown once.

Key:
[1] = molecular target: Drp6-4A (Drp6 GKFR-AAAA), N-terminal His6 tag (Tetrahymena thermophila) (UniProt Q38KF5)
[2] = molecular target: Drp6-4A (Drp6 GKFR-AAAA), N-terminal His6 tag (Tetrahymena thermophila) (UniProt Q38KF5); test: SEC
SEC = molecular target: the molecule itself; test: SEC

Molecule: Drp6-4A (Drp6 GKFR-AAAA), N-terminal His6 tag (from UniProt Q38KF5 1-710) (natural protein)
- GTP hydrolysis rate (colorimetric Pi release, 1 μM protein, 1 mM GTP) [1]: 0.83 μM /μM/min
- percent eluted in the tetramer peak (peak2) [2]: 19%
- stoichiometry N [2]: 4

B1: Dynamin-related protein 6 (Drp6), wild type, N-terminal His6 tag (natural protein, Tetrahymena thermophila, UniProt Q38KF5 1-710, looked up)
chain: MTNTIVPANNFQNIKEVIKVVNKLRDFGIESDKIQLPKIVVIGVQSSGKSSLLEQIVQLDFLPRGTGVVTRCPLEIRLIEVTNQDSDFKPYAYFFEERQKIFHDFELVKKEIQKITNDFAGPGKKIVDKVITLTIYQAQCPTLTLIDLPGMTLNSVGDQKDIERVTQDMTKKYIIEKTTIILCVIPINQDLENSLALNLARSVDENGERTIGVLTMIDIMNPGTNCENVLKNRQIPLLHRYYGMKPRSQKDINENVSVQEAIQREQLYFTSHQIYSMYPEYTGTNALTNKLSTLLDSHIRTFLPSIHKKIKMTLSERIKERQQLGNEFPTEVTQQLYELTNIINTSLNLFKQAMTNYDASEIQNIGKIKVDERVGKSYADFLFDKYLLICKKISEEQVFKVKMKDLIKELGKFRVQVNGFLPFEVFESQIKQKINLYETEAIVILEQLKEHVRKVLNHCIDLFPFPNNKIKKIMQDILQNFVQTEYNFTSSHIKTAFYCYKDCICSKMIDIHETESKLKQNHVYLQNDNQQKKVLYEYISKNKSFMEWTVQEIMIKAENLCNVPITMSDLQNTYTKAEEKVQNTDEVLRYSIIYYKYMDNFRKQISDQIPQCIQSLFINSLCKNLMVKVFQAIQSKEYKEIIEKNLKEDEIIATKRAKVIQSIQKLAKANDRLERLIDQGQNCNHMLSTTYGDEENYIHESLEDSDGIDD
- stoichiometry N (SEC): ≥ 6 protomers and 4
